Measurements as given in the Immune Epitope Database (IEDB).
pIC50, pKd: −log10 of the molar value.

Columns and labels:
[1] = biological target: HLA-B*44:03; experiment: IEDB peptide-MHC binding, purified MHC/competitive/radioactivity; filed as Kd, often an IC50 or EC50 that approximates it; ≥ and ≤ were set here for values at or beyond the usual limits of such assays
[2] = biological target: HLA-B*44:02; experiment: as above
[3] = biological target: HLA-B*40:01; experiment: as above
[4] = biological target: HLA-B*18:01; experiment: as above
[5] = biological target: HLA-B*45:01; experiment: as above
[6] = biological target: HLA-B*40:02; experiment: as above
[7] = biological target: HLA-B*15:01; experiment: IEDB peptide-MHC binding, purified MHC/competitive/fluorescence; filed as Kd, often an IC50 or EC50 that approximates it; ≥ and ≤ were set here for values at or beyond the usual limits of such assays
[8] = biological target: HLA-B*40:01; experiment: IEDB peptide-MHC binding, purified MHC/direct/fluorescence; filed as Kd, often an IC50 or EC50 that approximates it; ≥ and ≤ were set here for values at or beyond the usual limits of such assays
[9] = biological target: HLA-B*18:01; experiment: as above
[10] = biological target: HLA-A*26:01; experiment: as above
[11] = biological target: HLA-B*57:01; experiment: IEDB peptide-MHC binding, purified MHC/competitive/radioactivity; filed as Kd, often an IC50 or EC50 that approximates it; ≥ and ≤ were set here for values at or beyond the usual limits of such assays
[12] = biological target: HLA-A*01:01; experiment: as above
[13] = biological target: HLA-A*26:01; experiment: as above; conditions: source organism: Dengue virus 2 Jamaica/1409/1983
[14] = biological target: HLA-B*48:01; experiment: IEDB peptide-MHC binding, purified MHC/direct/fluorescence; filed as Kd, often an IC50 or EC50 that approximates it; ≥ and ≤ were set here for values at or beyond the usual limits of such assays
[15] = biological target: HLA-A*02:01; experiment: IEDB peptide-MHC binding, purified MHC/competitive/fluorescence; ≥ and ≤ were set here for values at or beyond the usual limits of such assays
[16] = biological target: HLA-A*24:02; experiment: as above
[17] = biological target: HLA-B*53:01; experiment: IEDB peptide-MHC binding, purified MHC/competitive/radioactivity; filed as Kd, often an IC50 or EC50 that approximates it; ≥ and ≤ were set here for values at or beyond the usual limits of such assays; conditions: source organism: Dengue virus 4 Philippines/H241/1956
[18] = biological target: HLA-A*26:01; experiment: IEDB peptide-MHC binding, purified MHC/competitive/fluorescence; filed as Kd, often an IC50 or EC50 that approximates it; ≥ and ≤ were set here for values at or beyond the usual limits of such assays
[19] = biological target: HLA-B*46:01; experiment: IEDB peptide-MHC binding, purified MHC/direct/fluorescence; filed as Kd, often an IC50 or EC50 that approximates it; ≥ and ≤ were set here for values at or beyond the usual limits of such assays
[20] = biological target: HLA-B*57:01; experiment: as above
[21] = biological target: HLA-A*69:01; experiment: as above
[22] = biological target: HLA-B*07:02; experiment: as above
[23] = biological target: HLA-B*15:01; experiment: as above
[24] = biological target: HLA-B*44:02; experiment: as above
[25] = biological target: HLA-A*03:01; experiment: as above
[26] = biological target: HLA-B*58:01; experiment: as above
[27] = biological target: HLA-B*27:05; experiment: as above
[28] = biological target: HLA-A*02:01; experiment: as above
[29] = biological target: HLA-A*01:01; experiment: as above
[30] = biological target: HLA-A*11:01; experiment: as above
[31] = biological target: HLA-B*08:01; experiment: as above; conditions: source organism: Mammarenavirus brazilense
[32] = biological target: HLA-A*31:01; experiment: as above
[33] = biological target: HLA-B*46:01; experiment: IEDB peptide-MHC binding, purified MHC/competitive/fluorescence; filed as Kd, often an IC50 or EC50 that approximates it; ≥ and ≤ were set here for values at or beyond the usual limits of such assays
[34] = biological target: HLA-A*02:01; experiment: as above; conditions: source organism: Salmonella enterica subsp. enterica serovar Typhi
[35] = source organism: SARS coronavirus Tor2
[36] = source organism: Bacillus anthracis str. A0488
[37] = source organism: Salmonella enterica
[38] = source organism: Dengue virus 2 Jamaica/1409/1983
[39] = source organism: Vaccinia virus WR
[40] = source organism: Dengue virus 4 Philippines/H241/1956
[41] = source organism: Mammarenavirus machupoense
[42] = source organism: Sudan ebolavirus
[43] = source organism: Lymphocytic choriomeningitis virus (strain Armstrong)
[44] = source organism: West Nile virus
[45] = source organism: Mammarenavirus brazilense
[46] = source organism: Bacillus cereus G9241
[47] = source organism: Yellow fever virus
[48] = source organism: Dengue virus 3 Martinique/1243/1999

EETFKLSYGI
pKd [1, 35]: 6.89
pKd [2, 35]: 7.12
pKd [3, 35]: 5.45
pKd [4, 35]: 4.71
pKd [5, 35]: 5.60
pKd [6, 35]: 6.71

SELVIGAVI
pKd [1, 35]: 6.37
pKd [2, 35]: 6.22
pKd [3, 35]: 7.05
pKd [4, 35]: 5.59
pKd [5, 35]: 6.81
pKd [6, 35]: 7.25

VLNGAPYSY
pKd [7, 36]: 7.27

NELSLALGL
pKd [1, 35]: 7.55
pKd [2, 35]: 6.39
pKd [3, 35]: 6.56
pKd [4, 35]: 7.04
pKd [5, 35]: 5.23
pKd [6, 35]: 6.81

YPVWLTKHL
pKd [8, 37]: 5.53
pKd [9, 37]: 5.67

ESFDLAGLF
pKd ([10]; source organism: Mammarenavirus juninense): 8.89

TEGLCVDIPG
pKd [1, 35]: ≤ 4.46
pKd [2, 35]: ≤ 4.36
pKd [3, 35]: ≤ 4.16
pKd [4, 35]: ≤ 4.15
pKd [5, 35]: 7.13
pKd [6, 35]: 7.04

ETSWHYDQDH
pKd [11, 38]: 5.64
pKd [12, 38]: ≤ 4.15
pKd [13]: ≤ 4.39

GMNEVTKAL
pKd ([14]; source organism: Giardia lamblia ATCC 50803): 6.44

HECFVKRVDW
pKd [1, 35]: 6.73
pKd [2, 35]: 6.52
pKd [3, 35]: ≤ 4.16
pKd [4, 35]: 5.18
pKd [5, 35]: ≤ 4.47
pKd [6, 35]: 5.24

LYLVDYGLV
pIC50 [15, 39]: ≤ 4.05
pIC50 [16, 39]: 6.67

EAVNDSRFW
pKd [11, 40]: 5.90
pKd [17]: 7.88

WEPEFYEAMY
pKd [1, 35]: 6.42
pKd [2, 35]: 5.65
pKd [3, 35]: 5.27
pKd [4, 35]: 5.78
pKd [5, 35]: ≤ 4.28
pKd [6, 35]: 5.14

KDMPGGYCL
pKd [1, 41]: ≤ 4.11
pKd [2, 41]: ≤ 4.37
pKd [3, 41]: 4.75
pKd [4, 41]: ≤ 4.41
pKd [5, 41]: 4.74
pKd [6, 41]: 6.63

KDYMSLSEQL
pKd [1, 35]: ≤ 4.53
pKd [2, 35]: ≤ 4.59
pKd [3, 35]: 5.21
pKd [4, 35]: ≤ 4.15
pKd [6, 35]: 5.24

AEIVDTVSAL
pKd [1, 35]: 6.98
pKd [2, 35]: 7.06
pKd [3, 35]: 8.94
pKd [4, 35]: ≤ 4.64
pKd [5, 35]: 6.54
pKd [6, 35]: 5.59

NTARLMAGA
pKd ([10]; source organism: Mycobacterium tuberculosis): ≤ 4.70

STSQETWNRQ
pKd ([11]; source organism: Dengue virus 1 Brazil/97-11/1997): 6.03

EEHFVETVSL
pKd [1, 35]: 6.84
pKd [2, 35]: 6.36
pKd [3, 35]: 8.04
pKd [4, 35]: 5.98
pKd [5, 35]: 6.94
pKd [6, 35]: 7.07

TTQALQLFL
pIC50 [15, 42]: 4.98
pIC50 [16, 42]: 5.18

GLITCKAFG
pIC50 [15, 39]: 4.22
pIC50 [16, 39]: ≤ 3.77

ADSDDILTL
pKd [1, 43]: 5.22
pKd [2, 43]: ≤ 4.68
pKd [3, 43]: ≤ 4.57
pKd [4, 43]: ≤ 4.11
pKd [5, 43]: ≤ 4.11
pKd [6, 43]: ≤ 4.65

HIVYAVPLM
pKd [18, 36]: 8.09

TRAVGKPLL
pKd [14, 44]: ≤ 4.70
pKd [19, 44]: ≤ 4.70
pKd [20, 44]: ≤ 4.70
pKd [21, 44]: ≤ 4.70
pKd [22, 44]: ≤ 4.70
pKd [23, 44]: ≤ 4.70
pKd [24, 44]: ≤ 4.70
pKd [25, 44]: ≤ 4.70
pKd [26, 44]: ≤ 4.70
pKd [8, 44]: ≤ 4.70
pKd [27, 44]: ≤ 4.70
pKd [9, 44]: ≤ 4.70
pKd [28, 44]: ≤ 4.70

FSAWISHRP
pIC50 ([15]; source organism: Variola virus): 4.42
pIC50 ([16]; source organism: Variola virus): 6.29

EFKSRFFVM
pKd [14, 45]: ≤ 4.70
pKd [19, 45]: ≤ 4.70
pKd [20, 45]: ≤ 4.70
pKd [21, 45]: ≤ 4.70
pKd [22, 45]: ≤ 4.70
pKd [29, 45]: ≤ 4.70
pKd [23, 45]: ≤ 4.70
pKd [24, 45]: ≤ 4.70
pKd [25, 45]: ≤ 4.70
pKd [26, 45]: ≤ 4.70
pKd [30, 45]: ≤ 4.70
pKd [27, 45]: ≤ 4.70
pKd [31]: 6.44
pKd [28, 45]: ≤ 4.70
pKd [32, 45]: ≤ 4.70

IAFCNWAFV
pKd ([33]; source organism: Vibrio cholerae 2740-80): 5.36
pKd ([21]; source organism: Vibrio cholerae): 7.22

RFSTSLLFLN
pKd [11, 40]: 5.96

SIIGILHLI
pKd ([18]; source organism: Influenza A virus (A/Memphis/1/1978(H1N1))): 4.89

KQSSFLSSL
pKd ([7]; source organism: Salmonella enterica subsp. enterica serovar Typhi): 7.03
pKd [34]: 7.42

ISRDIMDAY
pKd [33, 46]: 7.38

AEFNEDGLL
pKd ([14]; source organism: Listeria monocytogenes serotype 4b str. H7858): ≤ 4.70

RTSKKRSWPL
pKd [11, 38]: 6.16

SSARYDVAL
pKd [19, 47]: ≤ 4.70
pKd [20, 47]: ≤ 4.70
pKd ([22]; source organism: Yellow fever virus 17D): ≤ 4.70
pKd [29, 47]: ≤ 4.70
pKd [24, 47]: ≤ 4.70
pKd [25, 47]: ≤ 4.70
pKd [26, 47]: ≤ 4.70
pKd [30, 47]: ≤ 4.70
pKd [27, 47]: ≤ 4.70
pKd [9, 47]: ≤ 4.70
pKd [28, 47]: ≤ 4.70
pKd [32, 47]: ≤ 4.70

PASIAARGYI
pKd [11, 38]: 6.44

LTVVPLMAF
pKd [7, 46]: 6.83

SSSMRKTDWL
pKd [11, 48]: 5.50
pKd [12, 48]: ≤ 4.30
